Sequences and labels used below:
B1: HDV Ribozyme (parent)
chain: GGCCGGCAUGGUCCCAGCCUCCUCGCUGGCGCCGGCUGGGCAACAUUCCGAGGGGACCGUCCCCUCGGUAAUGGCGAAUGGGACCCA

The variants in this series derive from B1. In words: self-cleavage, relative activity (ratio to wild type); higher = more cleavage; co-transcriptional.
As for C66G G68C, the self-cleavage stood at 0.554. Consider C62G A77G, for which the self-cleavage stood at 0.745.

In the case of C62G A77C, the self-cleavage was 0.353. The figure for C63G U69A is 1.16; for U60G U72C it is 0.489; for U65G A70U it is 0.892. For the variant U65G A70G, the self-cleavage stood at 1.05. With U65A G73U, the self-cleavage was 0.217.

As to C61U A83C, the self-cleavage was determined as 0.378. The same measure for C63U A70G: 1.02. For G67A C75G, the self-cleavage worked out at 0.181.

Turning to C62G G68A, the self-cleavage was 0.199. With C62G G68U, the self-cleavage was found to be 0.425. The figure for U60C G81A is 0.604; for C62A A83C it is 0.315; for C66A U79C it is 0.582. For the variant C63G A78G, the self-cleavage is 0.54.

Consider U65A G76U, for which the self-cleavage was 1.04. The figure for G67A G80U is 0.203; for C63A A78C it is 0.108; for U60C C66G it is 1.02. The same measure for C61G A87C: 0.983; for C61A C84G: 0.795. The figure for C66U G67A is 0.786; for C61A G82A it is 0.46; for C66G U79C it is 0.521. Regarding C64A C86A, the self-cleavage is 0.942.

Take C61G U65A: the self-cleavage was 0.639. For U60G C63A, the self-cleavage amounted to 0.831. For C63G U72G, the self-cleavage turned out to be 0.192. C63U G67U: the self-cleavage is 1.02. As to C63U G67A, the self-cleavage was determined as 0.933.

Take C63U G67C: the self-cleavage is 0.96. As to U60G A83C, the self-cleavage worked out at 0.612. The same measure for C61G G81C: 0.262. For C61G G81A, the self-cleavage turned out to be 0.219. The same measure for C62A C64G: 0.142; for C62A C64A: 0.332; for U60C G80U: 0.157. Take C63G G73U: the self-cleavage was 0.397.

For the variant C66U C84G, the self-cleavage stood at 0.57. The figure for C62A U79G is 0.862; for C61G C63G it is 0.481; for U60G G82A it is 0.6. With C66U U69G, the self-cleavage was 0.867.

As for C63G A71G, the self-cleavage came out at 0.656. The same measure for C63G A71U: 0.712; for C63G C66U: 0.386; for C64G U72A: 0.614.

With U60G C86G, the self-cleavage stood at 1.14.

With U60C U69A, the self-cleavage came to 0.802. For U60C U69C, the self-cleavage was 1.2. On to C63A C85G, for which the self-cleavage was determined as 0.849. The figure for U60G A78G is 0.72; for U60G A78U it is 0.178; for U60G A78C it is 0.151. The same measure for U65A G67A: 0.98; for C66U G82U: 0.277; for C66G G73C: 0.46. The same measure for U60G C64G: 0.919; for U60G C64U: 0.897; for C66U U79C: 0.571. In the case of C61A U65C, the self-cleavage was found to be 0.909.

With C66U G80U, the self-cleavage amounted to 0.295.

With C62G A87U, the self-cleavage came out at 0.716. The figure for C62G A87C is 0.661.

Regarding U60G G73A, the self-cleavage was determined as 0.591. Take C66U A83G: the self-cleavage was 0.643. The figure for C61U C66U is 0.736. The figure for U65G G80C is 0.185. The same measure for C66G G67A: 0.706.

Consider U65G A87G, for which the self-cleavage came to 0.973.

As to U65G A87C, the self-cleavage stood at 0.859. The same measure for U60C C63G: 1.09; for U60C G73A: 0.815; for C63U C86G: 1.11.

For C62A C84U, the self-cleavage was found to be 0.618. The figure for C61U C64U is 1.2; for C64G U69G it is 0.91; for C64G U69C it is 1.29. The figure for C61A C62U is 1.01; for C63A G73U it is 0.3; for C63A G73A it is 0.681. The same measure for C63A G73C: 0.332; for C62G A71G: 0.346. As to C62G G73A, the self-cleavage amounted to 0.534. For the variant C62G G73C, the self-cleavage is 0.446. For the variant C61U U65C, the self-cleavage stood at 0.914. The same measure for U60G G67A: 0.91. For U60G G67C, the self-cleavage was found to be 0.98.

As to C63G G74C, the self-cleavage amounted to 0.128. The same measure for C66U G74U: 0.475; for C62U G74A: 0.383.

Turning to C62U G74C, the self-cleavage worked out at 0.234. With U65G C66G, the self-cleavage came to 0.812. U65G G76A: the self-cleavage stood at 0.95. The same measure for C61A U69A: 1.09. For C61A U69G, the self-cleavage came to 1.03. As to C61U C86A, the self-cleavage turned out to be 0.812. Turning to C64U C66U, the self-cleavage was determined as 1.01. On to C64U C66A, for which the self-cleavage worked out at 0.95. The figure for C62U A78C is 0.0936; for C62U A78U it is 0.282; for C63U G76U it is 1.15.

Take C63U C84A: the self-cleavage was 0.76.

Take U60C C75U: the self-cleavage was 0.203. On to U65A G80A, for which the self-cleavage came out at 0.201. The same measure for C61G C84A: 0.708; for C61A A83G: 0.997; for U65C G74A: 0.456. The figure for C62G A83C is 0.253. U60G C62U: the self-cleavage amounted to 1.05. For the variant U60C C61U, the self-cleavage is 0.718. The figure for C66G G81A is 0.408; for C66G G81C it is 0.193. As to C66G G81U, the self-cleavage stood at 0.214. As to C62U U69G, the self-cleavage was 1.07.

With C64G C84G, the self-cleavage is 0.76. The same measure for U65A A78C: 0.259.

Regarding G67A A87U, the self-cleavage is 1.06. As for G67A A87C, the self-cleavage was found to be 0.956. The same measure for C61U G81A: 0.44; for U60G G80U: 0.277; for C62A G81C: 0.138. The same measure for C66G A77G: 0.612; for C63U G73U: 0.409. For C61U G67U, the self-cleavage is 0.842. The figure for C64G G82U is 0.228; for C64G G82C it is 0.0811; for C64U G68U it is 0.607.

As for C61U G82A, the self-cleavage was 0.325. The same measure for G67A A83C: 0.464.

As for C62U U72C, the self-cleavage stood at 0.636. The figure for C66G is 0.973; for C66U it is 1.01; for C66A it is 0.975. Regarding C66U A77C, the self-cleavage stood at 0.34. The figure for C61A A77C is 0.527; for U65G A71U it is 0.863; for G67C A87U it is 0.858. The same measure for C62G C66U: 0.554; for C61G G67A: 0.743. Take C61A A71G: the self-cleavage turned out to be 1.11. The same measure for C61A A71U: 0.784; for C61G A70C: 0.944.

Regarding C63G U79C, the self-cleavage was 0.697. On to C63G U79A, for which the self-cleavage was 0.856. On to U65A G68A, for which the self-cleavage came to 0.641. Consider C61U U79C, for which the self-cleavage came out at 0.487. Turning to C61U U72G, the self-cleavage came to 0.567. Consider U65G C75G, for which the self-cleavage stood at 0.323. Turning to U65G C75A, the self-cleavage is 0.259. The figure for U60C C84A is 0.698. The same measure for U60C C84U: 0.918. On to C61A G68C, for which the self-cleavage came to 0.873. With C63G C84G, the self-cleavage amounted to 0.306. The figure for C66G C86G is 1.07; for C66G C86A it is 0.984. Take C66G C86U: the self-cleavage was determined as 0.931. As for C61U G73A, the self-cleavage stood at 0.547. Consider C62A C63G, for which the self-cleavage is 0.7. C62A C86U: the self-cleavage is 1.03. With C62A C86G, the self-cleavage was 0.975. The figure for C61A A78U is 0.131. The figure for G67C A78U is 0.225; for U65A C66A it is 1.08; for G67A A71C it is 0.752.
